US20250084398A1, “SYSTEMS FOR MODULATING DRUG METABOLISM BY CELLS, METHODS AND COMPOSITIONS THEREOF” (priority 2021, published 2025)
Where a chain is given by its changes, count along the chain named. Names may count otherwise.

What was measured:
[1] = mice, cited from earlier work
[2] = replacement of carboxylate-contacting residue; cited from earlier work
GUS enzyme [3] = conditions: induced with 1 mM PNPG; cited from earlier work
HL29 (ATCC HTB-38) cells = assay: Viability of human colorectal adenocarcinoma cells incubated 48 hr with SN38G-treated bacterial lysates (XTT viability assay); format: cell-based
Experimental: Two BW25113 bacterial cultures were used: Vector bacteria expressing empty vector, and K125A bacteria containing the DOIN vector expressing GusR mutant repressor K125A. The cultures were incubated with PNPG to induce the GUS operon and were then incubated with the indicated SN-38G (SantaCruz, 212931A) concentrations, followed by lysis of the bacteria. HL29 (ATCC® HTB-38™) cells were maintained according to the manufacture instructions and incubated for 48 hr with the different bacterial extractions. The viability of the cells, incubated with the bacterial lysates, were determined using the XTT viability assay, in three independent biological repeats using four replicates.
GusR mutant K125A reduces the cytotoxicity of SN38 by inhibiting the metabolism of SN38G by the bacterial GUS, in an enzyme concentration-dependent manner. The study was performed as described in FIGURE, with the following modifications: The cultures were incubated with PNPG to induce the GUS operon, diluted as indicated, followed by incubation with 1 μM of SN-38G, and subsequently, lysis of the bacteria. The viability of the cells was determined as above.
Bacteria (WT and GUS-inhibitor producing bacteria) are grown and induced using PNPG as described above. Following induction, the bacteria are lysed, and extracts are incubated with SN-38G or PNPG. At the end of the incubation period, the PNPG-incubated bacterial extracts are taken to determine the activity of the GUS. In parallel, the SN-38G-incubated bacterial extracts are added to HT29 cell culture to determine cytotoxicity and CC50.
The rate of SN38G conversion to SN38 by the bacterial GUS in the samples is dependent on the reaction conditions (e.g., GUS enzyme activity, substrate concentration etc.), thus the resulting samples contained different concentrations of SN38. The samples were then incubated with HL29, human colorectal adenocarcinoma cell-line, and the viability of the cells was determined. Different concentrations of SN38G and bacteria were examined to evaluate their effect on the cytotoxicity of SN38. […]

GUS enzyme [4] = assay: GUS assay: GUS specific activity in bacterial cultures, PNPG substrate, absorbance at 410 nm; format: cell-based, E. coli
Experimental: The GUS activity is performed as previously described elsewhere, including all required assay controls. Briefly, bacterial cultures grow to reach OD600 of 0.6. Once reached the targeted growth phase, the culture is transduced with the GusR_K125A-expressing vector. One hour later, the bacterial cultures are added to the assay reaction, along with the substrate (PNPG) and the assay buffer. The assay reaction is incubated at 37° C. for 6 hours and the activity of the GUS operon is monitored by the presence of the hydrolysis product (PNP) by measuring the absorbance at 410 nm. The arbitrary units of the GUS operon specific activity are calculated as follows: […]
Inhibition of the GUS activity using the GusR_K125A mutant was next evaluated by the inventors. More specifically, two E. coli bacterial hosts were used: BW25113 and MG1655. A plasmid that expresses the mutant repressor K125A was introduced into each of these hosts (BW25113 K125A and MG1655 K125A). The activity of the GUS operon was determined in the absence (−) or presence (+) of the GUS operon inducer PNPG. The specific units were calculated as described above. As shown by FIG. 4, GUS activity is inhibited in the presence of the dominant negative mutant repressor K125A in two bacterial hosts.

[5] = system: E. coli K-12 BW25113 and E. coli K12 MG1655; assay: TFU assay: transduction efficiency of phage-based particles into bacterial hosts; format: cell-based; conditions: 1 hr incubation with lysate
Experimental: FIG. 6. Transduction of the modulatory component into different microbiome isolates Transductions (TFU/ml) of the DOIN vector into microbiome isolates was determined using the TFU assay, as described previously. Test bacteria culture (MG1655 (grey bars), BW25113 (white bars)) was grown to reach mid-exponential growth phase and incubated for 1 hr with a lysate of transducing particles (modified bacteriophages) containing the DOIN vector expressing GusR K125A_CRISPR, used as the modulatory component. Ten-fold serial dilutions were plated in duplicates on selective plates, which only bacteria that were transduced were able to grow on. Dashed grey horizontal line indicates the assay limit of detection. Data represent at least two independent experiments.
The lysate titer is determined using the transducing forming units (TFU) assay as previously described elsewhere.
The produced lysates are used to transduce each of the abovementioned bacterial hosts, and the transduction efficiencies for each strain is determined by the TFU assay.
More specifically, phage-based particle lysate was prepared as described above. The transduction efficiency of the particles against the indicated bacterial host above was determined using the TFU assay, as described previously, and presented in Table 2. The tail used for transduction is TC1 (TC1 as denoted by SEQ ID NO: 4).

CCc1c2c(nc3ccc(O)cc13)-c1cc3c(c(=O)n1C2)COC(=O)[C@]3(O)CC [SN38]
time to peak concentration of SN38 ([1]; after administration of Irinotecan 80 mg/kg): 2 h
peak concentration of SN38 ([1]; intestine, Irinotecan 80 mg/kg): around 1 μg/gr tissue weight

B1: K125A GusR (protein)
chain: MMDNMQTEAQPTRTRILNAAREIFSENGFHSASMKAICKSCAISPGTLYHHFISKEALIQAIILQDQERALARFREPIEGIHFVDYMVESIVSLTHEAFGQRALVVEIMAEGMRNPQVAAMLKNAHMTITEFVAQRMRDAQQKGEISPDINTAMTSRLLLDLTYGVLADIEAEDLAREASFAQGLRAMIGGILTAS
affinity to the GUS ligand [2]: significantly lower affinity
GUS activity of bacterial cells containing an expression plasmid (GUS enzyme [3]): no GUS activity
rescue of cells from the toxic effect of SN38 (FIG. 9) (HL29 (ATCC HTB-38) cells; SN38G 0.1 μM, BW25113 bacteria): completely rescued
cells rescued (viability, FIG. 9) (HL29 (ATCC HTB-38) cells; SN38G 1 μM, BW25113 bacteria, un-diluted): 60%
cells rescued from SN38 toxicity (FIG. 10) (HL29 (ATCC HTB-38) cells; SN38G 1 μM, bacteria 6-fold diluted): ~100%
GUS specific activity lower than in empty vector-expressing bacteria (GUS enzyme [4]; samples of the cytotoxicity study (BW25113)): around 10 fold
GUS activity (specific activity, FIG. 4) (GUS enzyme [4]; two bacterial hosts, BW25113 and MG1655, absence or presence of PNPG): inhibited
Transduction into microbiome isolates (FIG. 6) [5]: successful transduction

B2: Y164F GusR (protein)
chain: B1 chain with A125K, Y164F
reduction of GUS activity (FIG. 7) (GUS enzyme [4]; BW25113 bacteria): 34 fold
reduction of GUS activity (FIG. 7) (GUS enzyme [4]; MG1655 bacteria): ~1.5 fold
